Laboratory results reported in IntAct's records for PubMed 22266823.

B1: Fanconi anemia core complex-associated protein 20 (Homo sapiens), Q6NZ36-1 (parent)
chain: MEAARRPRLGLSRRRPRPAGGPSGGRPWFLLGGDERERLWAELLRTVSPELILDHEVPSLPAFPGQEPRCGPEPTEVFTVGPKTFSWTPFPPDLWGPGRSYRLLHGAGGHLESPARSLPQRPAPDPCRAPRVEQQPSVEGAAALRSCPMCQKEFAPRLTQLDVDSHLAQCLAESTEDVTW
partner: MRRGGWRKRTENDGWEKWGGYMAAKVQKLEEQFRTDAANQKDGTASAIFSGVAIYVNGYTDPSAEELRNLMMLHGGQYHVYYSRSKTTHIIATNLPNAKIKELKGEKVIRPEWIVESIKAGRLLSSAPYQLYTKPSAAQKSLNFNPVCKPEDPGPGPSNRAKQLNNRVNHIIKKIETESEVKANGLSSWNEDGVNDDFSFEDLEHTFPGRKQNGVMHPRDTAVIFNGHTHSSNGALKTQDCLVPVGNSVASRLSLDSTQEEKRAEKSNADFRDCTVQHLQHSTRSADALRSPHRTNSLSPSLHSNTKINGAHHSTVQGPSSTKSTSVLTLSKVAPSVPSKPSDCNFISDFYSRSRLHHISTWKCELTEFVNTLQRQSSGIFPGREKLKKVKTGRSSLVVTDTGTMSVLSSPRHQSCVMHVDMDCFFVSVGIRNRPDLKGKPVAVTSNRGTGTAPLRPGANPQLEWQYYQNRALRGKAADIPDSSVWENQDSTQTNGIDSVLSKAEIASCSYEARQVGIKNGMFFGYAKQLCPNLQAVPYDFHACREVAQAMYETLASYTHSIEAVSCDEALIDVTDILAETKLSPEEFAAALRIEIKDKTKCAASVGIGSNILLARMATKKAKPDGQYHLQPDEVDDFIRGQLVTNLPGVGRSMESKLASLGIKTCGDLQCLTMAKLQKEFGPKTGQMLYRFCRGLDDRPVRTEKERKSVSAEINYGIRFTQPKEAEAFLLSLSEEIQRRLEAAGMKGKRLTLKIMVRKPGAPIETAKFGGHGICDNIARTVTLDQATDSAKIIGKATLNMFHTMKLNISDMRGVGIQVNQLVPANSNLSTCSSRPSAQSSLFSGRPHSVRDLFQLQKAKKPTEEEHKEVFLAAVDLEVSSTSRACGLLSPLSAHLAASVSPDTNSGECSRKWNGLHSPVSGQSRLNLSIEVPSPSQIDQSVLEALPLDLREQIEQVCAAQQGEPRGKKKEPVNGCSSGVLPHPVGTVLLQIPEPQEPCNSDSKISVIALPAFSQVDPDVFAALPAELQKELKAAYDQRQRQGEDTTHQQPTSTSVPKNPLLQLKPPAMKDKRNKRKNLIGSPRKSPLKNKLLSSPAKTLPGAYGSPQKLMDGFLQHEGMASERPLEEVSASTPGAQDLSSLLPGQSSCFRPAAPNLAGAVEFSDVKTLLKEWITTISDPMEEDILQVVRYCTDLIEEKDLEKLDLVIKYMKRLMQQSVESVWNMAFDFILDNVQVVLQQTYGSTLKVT

Variants of: B1
Conditions: with rev1_mouse Rev1, Q920Q2
For C147A;C150A, the “effect of a mutation on the interaction” value was “disrupting interaction strength”.
